# Laboratory results from patent US20220074941A1, “HSP90 COMBINATION THERAPY” (Sloan-Kettering Institute for Cancer Research, priority 2011, published 2022).
# B1: SUPV3L1 (protein, UniProt Q8IYB8 23-786, looked up)
# ATP-dependent RNA helicase …: AICSALRPHFGPFPGVLGQVSVLATASSSASGGSKIPNTSLFVPLTVKPQGPSADGDVGAELTRPLDKNEVKKVLDKFYKRKEIQKLGADYGLDARLFHQAFISFRNYIMQSHSLDVDIHIVLNDICFGAAHADDLFPFFLRHAKQIFPVLDCKDDLRKISDLRIPPNWYPDARAMQRKIIFHSGPTNSGKTYHAIQKYFSAKSGVYCGPLKLLAHEIFEKSNAAGVPCDLVTGEERVTVQPNGKQASHVSCTVEMCSVTTPYEVAVIDEIQMIRDPARGWAWTRALLGLCAEEVHLCGEPAAIDLVMELMYTTGEEVEVRDYKRLTPISVLDHALESLDNLRPGDCIVCFSKNDIYSVSRQIEIRGLESAVIYGSLPPGTKLAQAKKFNDPNDPCKILVATDAIGMGLNLSIRRIIFYSLIKPSINEKGERELEPITTSQALQIAGRAGRFSSRFKEGEVTTMNHEDLSLLKEILKRPVDPIRAAGLHPTAEQIEMFAYHLPDATLSNLIDIFVDFSQVDGQYFVCNMDDFKFSAELIQHIPLSLRVRYVFCTAPINKKQPFVCSSLLQFARQYSRNEPLTFAWLRRYIKWPLLPPKNIKDLMDLEAVHDVLDLYLWLSYRFMDMFPDASLIRDLQKELDGIIQDGVHNITKLIKMSETHKLLNLEGFPSGSQSRLSGTLKSQARRTRGTKALGSKATEPPSPDAGELSLASRLVQQGLLTPDMLKQLEKEWMTQQTEHNKEKTESGTHPKGTRRKKKEPDSD
# B2: FAM115A (protein, UniProt Q9Y4C2 1-921, looked up)
# TRPM8 channel-associated …: MATPSAAFEALMNGVTSWDVPEDAVPCELLLIGEASFPVMVNDMGQVLIAASSYGRGRLVVVSHEDYLVEAQLTPFLLNAVGWLCSSPGAPIGVHPSLAPLAKILEGSGVDAKVEPEVKDSLGVYCIDAYNETMTEKLVKFMKCGGGLLIGGQAWDWANQGEDERVLFTFPGNLVTSVAGIYFTDNKGDTSFFKVSKKMPKIPVLVSCEDDLSDDREELLHGISELDISNSDCFPSQLLVHGALAFPLGLDSYHGCVIAAARYGRGRVVVTGHKVLFTVGKLGPFLLNAVRWLDGGRRGKVVVQTELRTLSGLLAVGGIDTSIEPNLTSDASVYCFEPVSEVGVKELQEFVAEGGGLFVGAQAWWWAFKNPGVSPLARFPGNLLLNPFGISITSQSLNPGPFRTPKAGIRTYHFRSTLAEFQVIMGRKRGNVEKGWLAKLGPDGAAFLQIPAEEIPAYMSVHRLLRKLLSRYRLPVATRENPVINDCCRGAMLSLATGLAHSGSDLSLLVPEIEDMYSSPYLRPSESPITVEVNCTNPGTRYCWMSTGLYIPGRQIIEVSLPEAAASADLKIQIGCHTDDLTRASKLFRGPLVINRCCLDKPTKSITCLWGGLLYIIVPQNSKLGSVPVTVKGAVHAPYYKLGETTLEEWKRRIQENPGPWGELATDNIILTVPTANLRTLENPEPLLRLWDEVMQAVARLGAEPFPLRLPQRIVADVQISVGWMHAGYPIMCHLESVQELINEKLIRTKGLWGPVHELGRNQQRQEWEFPPHTTEATCNLWCVYVHETVLGIPRSRANIALWPPVREKRVRIYLSKGPNVKNWNAWTALETYLQLQEAFGWEPFIRLFTEYRNQTNLPTENVDKMNLWVKMFSHQVQKNLAPFFEAWAWPIQKEVATSLAYLPEWKENIMKLYLLTQMPH
# B3: NAT10 (protein, UniProt Q9H0A0 1-1025, looked up)
# RNA cytidine acetyltransferase: MHRKKVDNRIRILIENGVAERQRSLFVVVGDRGKDQVVILHHMLSKATVKARPSVLWCYKKELGFSSHRKKRMRQLQKKIKNGTLNIKQDDPFELFIAATNIRYCYYNETHKILGNTFGMCVLQDFEALTPNLLARTVETVEGGGLVVILLRTMNSLKQLYTVTMDVHSRYRTEAHQDVVGRFNERFILSLASCKKCLVIDDQLNILPISSHVATMEALPPQTPDESLGPSDLELRELKESLQDTQPVGVLVDCCKTLDQAKAVLKFIEGISEKTLRSTVALTAARGRGKSAALGLAIAGAVAFGYSNIFVTSPSPDNLHTLFEFVFKGFDALQYQEHLDYEIIQSLNPEFNKAVIRVNVFREHRQTIQYIHPADAVKLGQAELVVIDEAAAIPLPLVKSLLGPYLVFMASTINGYEGTGRSLSLKLIQQLRQQSAQSQVSTTAENKTTTTARLASARTLYEVSLQESIRYAPGDAVEKWLNDLLCLDCLNITRIVSGCPLPEACELYYVNRDTLFCYHKASEVFLQRLMALYVASHYKNSPNDLQMLSDAPAHHLFCLLPPVPPTQNALPEVLAVIQVCLEGEISRQSILNSLSRGKKASGDLIPWTVSEQFQDPDFGGLSGGRVVRIAVHPDYQGMGYGSRALQLLQMYYEGRFPCLEEKVLETPQEIHTVSSEAVSLLEEVITPRKDLPPLLLKLNERPAERLDYLGVSYGLTPRLLKFWKRAGFVPVYLRQTPNDLTGEHSCIMLKTLTDEDEADQGGWLAAFWKDFRRRFLALLSYQFSTFSPSLALNIIQNRNMGKPAQPALSREELEALFLPYDLKRLEMYSRNMVDYHLIMDMIPAISRIYFLNQLGDLALSAAQSALLLGIGLQHKSVDQLEKEIELPSGQLMGLFNRIIRKVVKLFNEVQEKAIEEQMVAAKDVVMEPTMKTLSDDLDEAAKEFQEKHKKEVGKLKSMDLSEYIIRGDDEEWNEVLNKAGPNASIISLKSDKKRKLEAKQEPKQSKKLKNRETKNKKDMKLKRKK
# B4: TRIPI3 (protein, UniProt Q15645 1-432, looked up)
# Pachytene checkpoint protein …: MDEAVGDLKQALPCVAESPTVHVEVHQRGSSTAKKEDINLSVRKLLNRHNIVFGDYTWTEFDEPFLTRNVQSVSIIDTELKVKDSQPIDLSACTVALHIFQLNEDGPSSENLEEETENIIAANHWVLPAAEFHGLWDSLVYDVEVKSHLLDYVMTTLLFSDKNVNSNLITWNRVVLLHGPPGTGKTSLCKALAQKLTIRLSSRYRYGQLIEINSHSLFSKWFSESGKLVTKMFQKIQDLIDDKDALVFVLIDEVESLTAARNACRAGTEPSDAIRVVNAVLTQIDQIKRHSNVVILTTSNITEKIDVAFVDRADIKQYIGPPSAAAIFKIYLSCLEELMKCQIIYPRQQLLTLRELEMIGFIENNVSKLSLLLNDISRKSEGLSGRVLRKLPFLAHALYVQAPTVTIEGFLQALSLAVDKQFEERKKLAAYI
# B5: FAM120A (protein, UniProt Q9NZB2 1-1118, looked up)
# Constitutive coactivator of …: MGVQGFQDYIEKHCPSAVVPVELQKLARGSLVGGGRQRPPQTPLRLLVDADNCLHRLYGGFYTDWVSGGQWNHMLGYLAALAKACFGGNIELFVFFNGALEKARLHEWVKRQGNERQTAQQIVSHVQNKGTPPPKVWFLPPVCMAHCIRLALIRFHVKVAQSIEDHHQEVIGFCRENGFHGLVAYDSDYALCNIPYYFSAHALKLSRNGKSLTTSQYLMHEVAKQLDLNPNRFPIFAALLGNHILPDEDLASFHWSLLGPEHPLASLKVRAHQLVLPPCDVVIKAVADYVRNIQDTSDLDAIAKDVFQHSQSRTDDKVIRFKRAIGYYSATSKPMSFHPPHYLAARPGPFGMPGMVPPHVPPQMLNIPQTSLQAKPVAPQVPSPGGAPGQGPYPYSLSEPAPLTLDTSGKNLTEQNSYSNIPHEGKHTPLYERSSPINPAQSGSPNHVDSAYFPGSSTSSSSDNDEGSGGATNHISGNKIGWEKTGSHSEPQARGDPGDQTKAEGSSTASSGSQLAEGKGSQMGTVQPIPCLLSMPTRNHMDITTPPLPPVAPEVLRVAEHRHKKGLMYPYIFHVLTKGEIKIAVSIEDEANKDLPPAALLYRPVRQYVYGVLFSLAESRKKTERLAFRKNRLPPEFSPVIIKEWAAYKGKSPQTPELVEALAFREWTCPNLKRLWLGKAVEDKNRRMRAFLACMRSDTPAMLNPANVPTHLMVLCCVLRYMVQWPGARILRRQELDAFLAQALSPKLYEPDQLQELKIENLDPRGIQLSALFMSGVDMALFANDACGQPIPWEHCCPWMYFDGKLFQSKLLKASREKTPLIDLCDGQADQAAKVEKMRQSVLEGLSFSRQSHTLPFPPPPALPFYPASAYPRHFGPVPPSQGRGRGFAGVCGFGGPYGETVATGPYRAFRVAAASGHCGAFSGSDSSRTSKSQGGVQPIPSQGGKLEIAGTVVGHWAGSRRGRGGRGPFPLQVVSVGGPARGRPRGVISTPVIRTFGRGGRYYGRGYKNQAAIQGRPPYAASAEEVAKELKSKSGESKSSAMSSDGSLAENGVMAEEKPAPQMNGSTGDARAPSHSESALNNDSKTCNTNPHLNALSTDSACRREAALEAAVLNKEE
# Tested on: Hsp90 complexes in K562 cell extract
# Test: Nano-LC-MS/MS of PU-beads pull-downs
# Type: binding
# Conditions: protein identified in PU-beads pull-down of K562 cell extract, Prep 1; QSTAR-Elite QTof MS
# Description: Protein cargo isolated from cell lysate with PU-beads or control-beads was subjected to proteomic analysis by nano liquid chromatography coupled to tandem mass spectrometry (nano LC-MS/MS). Initial protein identification was performed using the Mascot search engine, and was further evaluated using Scaffold Proteome Software (Tables 5a-d).
# (§1) Lysates prepared as mentioned above were first pre-cleaned by incubation with control beads overnight at 4° C. […] Beads were washed with lysis buffer, proteins eluted by boiling in 2% SDS, separated on a denaturing gel and Coomassie stained according to manufacturer's procedure (Biorad). […] Analyses of the batch purified pools were done using a QSTAR-Elite hybrid quadrupole time-of-flight mass spectrometer (QTof MS) (AB/MDS Sciex), equipped with a nano spray ion source. Peptide mixtures (in 20 μL) are loaded onto a trapping guard column (0.3×5-mm PepMap C18 100 cartridge from LC Packings) using an Eksigent nano MDLC system (Eksigent Technologies, Inc) at a flow rate of 20 μL/min. […] Electrospray ionization (ESI) needle voltage was set at about 1800 V. The mass analyzer is operated in automatic, data-dependent MS/MS acquisition mode, with the threshold set to 10 counts per second of doubly or triply charged precursor ions selected for fragmentation scans. Survey scans of 0.25 sec are recorded from 400 to 1800 amu; up to 3 MS/MS scans are then collected sequentially for the selected precursor ions, recording from 100 to 1800 amu. The collision energy is automatically adjusted in accordance with the m/z value of the precursor ions selected for MS/MS. Selected precursor ions are excluded from repeated selection for 60 sec after the end of the corresponding fragmentation duty cycle. […] One missed tryptic cleavage site was allowed, precursor ion mass tolerance=0.4 Da fragment ion mass tolerance=0.4 Da, protein modifications were allowed for Met-oxide, Cys-acrylamide and N-terminal acetylation. MudPit scoring was typically applied with ‘require bold red’ activated, and using significance threshold score p<0.05. Unique peptide counts (or ‘spectral counts’) and percent sequence coverages for all identified proteins were exported to Scaffold Proteome Software (version 2_06_01, www.proteomesoftware.com) for further bioinformatic analysis (Table 5a). Using output from Mascot, Scaffold validates, organizes, and interprets mass spectrometry data, allowing more easily to manage large amounts of data, to compare samples, and to search for protein modifications.
row,Molecule,"Number of Assigned Spectra, K562 Prep 1"
1,B1,8
2,B2,9
3,B3,8
4,B4,3
5,B5,1

# Same assay, conditions: protein identified in PU-beads pull-down of K562 cell extract, Prep 2; QSTAR-Elite QTof MS
row,Molecule,"Number of Assigned Spectra, K562 Prep 2"
1,B1,3
2,B2,1
3,B3,3
4,B4,3
5,B5,1

# Tested on: Hsp90 complexes in Mia-PaCa-2 cell extract
# Test: Nano-LC-MS/MS of PU-beads pull-downs
# Type: binding, human
# Conditions: protein identified in PU-beads pull-down of Mia-PaCa-2 cell extract; QSTAR-Elite QTof MS
# Description: as §1
row,Molecule,"Number of Assigned Spectra, Mia-Paca 2"
1,B1,0
2,B2,0
3,B3,1
4,B4,8
5,B5,12
